The experiment deals with T1, MUC1 carrying sialylated Core-1 glycans expressed by the breast cancer cell line T47D (UniProt P15941 24-1255, limits assumed, O-linked sialylated Core-1 glycans).
T1 construct: whole, on cells; also called MUC1-ST on T47D cells; T47D cells (MUC1-ST+ve)
Description: staining of FFPE T47D cells with human Siglec-9 IgG fusion, DAB.

T1 sequence (P15941 24-1255 limits assumed, stated change not applied): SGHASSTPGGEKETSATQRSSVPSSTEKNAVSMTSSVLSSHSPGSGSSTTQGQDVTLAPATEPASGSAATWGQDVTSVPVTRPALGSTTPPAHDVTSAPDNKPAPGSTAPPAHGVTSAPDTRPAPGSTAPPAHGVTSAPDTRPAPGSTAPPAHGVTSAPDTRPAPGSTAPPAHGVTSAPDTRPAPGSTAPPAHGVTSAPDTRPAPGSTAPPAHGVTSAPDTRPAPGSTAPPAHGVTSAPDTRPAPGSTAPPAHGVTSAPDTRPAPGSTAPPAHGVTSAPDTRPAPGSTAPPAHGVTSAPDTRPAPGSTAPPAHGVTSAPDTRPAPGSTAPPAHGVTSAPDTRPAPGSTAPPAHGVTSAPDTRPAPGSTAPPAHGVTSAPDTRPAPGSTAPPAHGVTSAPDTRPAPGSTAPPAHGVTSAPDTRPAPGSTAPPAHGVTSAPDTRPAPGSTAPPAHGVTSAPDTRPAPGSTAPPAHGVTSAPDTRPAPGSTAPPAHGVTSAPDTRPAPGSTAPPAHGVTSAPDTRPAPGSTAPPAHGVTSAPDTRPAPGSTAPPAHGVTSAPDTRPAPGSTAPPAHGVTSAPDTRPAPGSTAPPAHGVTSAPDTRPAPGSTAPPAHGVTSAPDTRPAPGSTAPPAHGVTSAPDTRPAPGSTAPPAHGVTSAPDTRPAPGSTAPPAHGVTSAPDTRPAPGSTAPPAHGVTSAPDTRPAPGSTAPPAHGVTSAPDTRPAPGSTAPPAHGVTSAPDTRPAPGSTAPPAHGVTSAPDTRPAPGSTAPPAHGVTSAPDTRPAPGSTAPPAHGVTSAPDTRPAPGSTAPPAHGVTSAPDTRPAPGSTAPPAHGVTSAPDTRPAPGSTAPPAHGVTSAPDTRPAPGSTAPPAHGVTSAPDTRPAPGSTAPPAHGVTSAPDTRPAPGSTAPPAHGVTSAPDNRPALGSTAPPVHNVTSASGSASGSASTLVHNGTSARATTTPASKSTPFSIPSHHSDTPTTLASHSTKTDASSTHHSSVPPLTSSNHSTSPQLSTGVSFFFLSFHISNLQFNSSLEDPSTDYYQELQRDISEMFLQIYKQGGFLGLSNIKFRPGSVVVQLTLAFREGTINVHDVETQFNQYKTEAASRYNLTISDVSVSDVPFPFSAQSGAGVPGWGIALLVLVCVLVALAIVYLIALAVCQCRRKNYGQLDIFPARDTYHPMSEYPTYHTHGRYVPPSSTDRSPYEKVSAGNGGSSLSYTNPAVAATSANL

B1: Recombinant human Siglec-9 fusion protein (Fc fusion)
chain: TSKLLTMQSSVTVQEGLCVHVPCSFSYPSHGWIYPGPVVHGYWFREGANTDQDAPVATNNPARAVWEETRDRFHLLGDPHTKNCTLSIRDARRSDAGRYFFRMEKGSIKWNYKHHRLSVNVTALTHRPNILIPGTLESGCPQNLTCSVPWACEQGTPPMISWIGTSVSPLDPSTTRSSVLTLIPQPQDHGTSLTCQVTFPGASVTTNKTVHLNVSYPPQNLTMTVFQGDGTVSTVLGNGSSLSLPEGQSLRLVCAVDAVDSNPPARLSLSWRGLTLCPSQPSNPGVLELPWVHLRDAAEFTCRAQNPLGSQQVYLNVSLQSKATSGVTQG
notes: also called human Siglec-9 IgG fusion; recombinant Siglec 9; not shown: human IgG part of the fusion (captured with mouse anti human IgG)
In the case of B1, the binding result was “binds”.

For the origin of these results see patent US20190211099A1 (KING S COLLEGE LONDON, published 2019).
